Laboratory results published in US20200283508A1.

What was measured:
human fibrinogen (human) [1] = target: human fibrinogen (human) (UniProt P02671); assay: competition ELISA on coated Fg; competitor 2 nM rCoa-C GST fusion
human fibrinogen (human) [2] = target: human fibrinogen (human) (UniProt P02671); assay: competition ELISA on coated Fg; competitor 2 nM rEfb-N GST fusion
human fibrinogen (human) [3] = target: human fibrinogen (human) (UniProt P02671); assay: ELISA, GST-tagged fragment on immobilized Fg
[4] = target: Fibrinogen-D fragment (human) (UniProt P02671); assay: isothermal titration calorimetry, peptide into 10 µM Fg-D, one-site model
Sequence of Fibrinogen-D fragment (human) (P02671 130-216 limits assumed, chain 1 of 3): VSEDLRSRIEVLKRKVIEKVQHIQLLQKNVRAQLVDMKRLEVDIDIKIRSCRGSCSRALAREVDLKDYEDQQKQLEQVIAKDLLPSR
Sequence of Fibrinogen-D fragment (human) (P02675 164-491 limits assumed, chain 2 of 3, further chain): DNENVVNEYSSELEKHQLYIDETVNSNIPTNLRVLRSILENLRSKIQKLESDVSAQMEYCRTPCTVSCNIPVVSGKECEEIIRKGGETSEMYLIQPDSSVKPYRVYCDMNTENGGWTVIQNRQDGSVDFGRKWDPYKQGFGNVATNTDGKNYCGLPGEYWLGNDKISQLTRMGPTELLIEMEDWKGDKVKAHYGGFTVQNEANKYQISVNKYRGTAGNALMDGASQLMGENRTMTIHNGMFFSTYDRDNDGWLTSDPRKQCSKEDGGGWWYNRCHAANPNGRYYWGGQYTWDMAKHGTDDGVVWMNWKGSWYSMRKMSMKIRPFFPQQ
Sequence of Fibrinogen-D fragment (human) (P02679 114-432 limits assumed, chain 3 of 3, further chain): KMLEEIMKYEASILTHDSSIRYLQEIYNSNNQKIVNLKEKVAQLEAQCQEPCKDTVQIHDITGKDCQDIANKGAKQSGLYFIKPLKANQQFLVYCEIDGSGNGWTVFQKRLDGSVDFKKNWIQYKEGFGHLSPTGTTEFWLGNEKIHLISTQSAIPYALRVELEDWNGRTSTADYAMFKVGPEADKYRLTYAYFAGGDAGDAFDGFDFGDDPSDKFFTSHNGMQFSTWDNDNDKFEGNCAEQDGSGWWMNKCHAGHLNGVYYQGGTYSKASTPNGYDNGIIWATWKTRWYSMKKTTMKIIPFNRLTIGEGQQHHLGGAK

human fibrinogen (human) [5] = target: human fibrinogen (human) (UniProt P02671); assay: ELISA, GST-tagged fragment on immobilized Fg; apparent affinity
human fibrinogen (human) [6] = target: human fibrinogen (human) (UniProt P02671); assay: ELISA on coated Fg; Km = protein concentration at half of the maximum; R2 0.986
human fibrinogen (human) [7] = target: human fibrinogen (human) (UniProt P02671); assay: competition ELISA on coated Fg; competitor 4 nM rCoa-C GST fusion
[8] = target: Fibrinogen-D fragment (human) (UniProt P02671); assay: ITC (VP-ITC), fit box Model: OneSites beside the isotherm
[9] = target: Fibrinogen-D fragment (human) (UniProt P02671); assay: ITC (VP-ITC), peptide titrated into 10 µM Fg-D, one-site model
[10] = target: Fibrinogen-D fragment (human) (UniProt P02671); assay: ITC (VP-ITC), fit box Model: OneSites beside the isotherm; unit not given
human fibrinogen (human) [11] = target: human fibrinogen (human) (UniProt P02671); assay: ELISA on coated Fg; Km = protein concentration at half of the maximum; R2 0.995
human fibrinogen (human) [12] = target: human fibrinogen (human) (UniProt P02671); assay: solid phase binding assay, Efb coated, Fg titrated; apparent KD; Efb coated on the well, fibrinogen titrated
human fibrinogen (human) [13] = target: human fibrinogen (human) (UniProt P02671); assay: ELISA on coated Fg; Km = protein concentration at half of the maximum; R2 0.991

Sequence of human fibrinogen (human) (P02671 20-629 limits assumed, form in doubt, chain 1 of 3): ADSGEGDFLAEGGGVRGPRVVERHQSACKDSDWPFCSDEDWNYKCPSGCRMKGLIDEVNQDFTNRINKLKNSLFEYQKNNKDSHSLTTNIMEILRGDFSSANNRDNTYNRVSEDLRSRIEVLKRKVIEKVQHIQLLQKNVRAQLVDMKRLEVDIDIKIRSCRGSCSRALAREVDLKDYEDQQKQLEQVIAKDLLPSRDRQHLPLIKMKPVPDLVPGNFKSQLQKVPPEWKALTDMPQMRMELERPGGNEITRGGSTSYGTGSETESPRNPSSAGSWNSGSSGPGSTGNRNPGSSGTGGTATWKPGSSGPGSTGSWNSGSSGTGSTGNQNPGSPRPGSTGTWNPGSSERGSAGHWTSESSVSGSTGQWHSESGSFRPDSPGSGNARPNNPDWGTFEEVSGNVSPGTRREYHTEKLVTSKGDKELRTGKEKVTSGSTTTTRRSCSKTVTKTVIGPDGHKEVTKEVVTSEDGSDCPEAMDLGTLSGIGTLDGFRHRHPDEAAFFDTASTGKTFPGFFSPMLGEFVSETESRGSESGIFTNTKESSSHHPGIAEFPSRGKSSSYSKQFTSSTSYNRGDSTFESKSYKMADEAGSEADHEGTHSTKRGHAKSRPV
Sequence of human fibrinogen (human) (P02675 31-491 limits assumed, form in doubt, chain 2 of 3, further chain): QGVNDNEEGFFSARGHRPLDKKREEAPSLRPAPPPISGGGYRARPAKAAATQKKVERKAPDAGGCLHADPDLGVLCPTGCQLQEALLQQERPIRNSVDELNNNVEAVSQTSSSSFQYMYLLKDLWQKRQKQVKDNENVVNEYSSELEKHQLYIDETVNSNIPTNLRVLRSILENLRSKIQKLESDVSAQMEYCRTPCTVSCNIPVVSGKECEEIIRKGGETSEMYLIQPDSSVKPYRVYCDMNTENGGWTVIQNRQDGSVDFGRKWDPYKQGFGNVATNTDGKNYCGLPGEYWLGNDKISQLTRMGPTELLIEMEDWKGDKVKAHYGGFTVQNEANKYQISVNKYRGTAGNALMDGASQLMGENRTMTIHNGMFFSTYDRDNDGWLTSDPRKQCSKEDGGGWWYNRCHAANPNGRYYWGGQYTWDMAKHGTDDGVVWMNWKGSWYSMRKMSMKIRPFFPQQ
Sequence of human fibrinogen (human) (P02679 27-453 limits assumed, form in doubt, chain 3 of 3, further chain): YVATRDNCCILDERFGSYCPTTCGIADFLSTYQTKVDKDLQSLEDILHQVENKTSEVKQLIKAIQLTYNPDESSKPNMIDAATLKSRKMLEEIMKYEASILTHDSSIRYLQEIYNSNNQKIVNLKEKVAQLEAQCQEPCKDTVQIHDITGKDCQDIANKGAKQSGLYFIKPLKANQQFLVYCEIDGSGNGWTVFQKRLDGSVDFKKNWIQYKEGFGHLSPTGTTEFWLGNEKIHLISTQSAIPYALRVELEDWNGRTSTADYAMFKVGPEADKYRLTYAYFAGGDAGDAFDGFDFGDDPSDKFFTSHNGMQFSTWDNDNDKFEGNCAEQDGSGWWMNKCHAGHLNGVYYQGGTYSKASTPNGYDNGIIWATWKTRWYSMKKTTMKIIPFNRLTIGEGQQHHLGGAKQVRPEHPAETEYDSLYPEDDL

## synthetic peptide Coa-O (Coa 474-505)
Human fibrinogen (human) [1]
  IC50 (read off the curve): 9 µM
Human fibrinogen (human) [2]
  IC50 (read off the curve): 2 to 3 µM

## Coa-C (Coa 311-636) (from UniProt P08515 1-218)
Human fibrinogen (human) [3]
  EC50: 0.0075 µM

## synthetic peptide Coa-RI (Coa 506-532)
[4]
  binding stoichiometry: 0.93
Human fibrinogen (human) [1]
  IC50 (read off the curve): 3 µM

## Coa-R (Coa 506-636)
Human fibrinogen (human) [5]
  Kd: 0.0008 µM

## Coa-F (Coa 311-505) (from UniProt P08515 1-218)
Human fibrinogen (human) [6]
  Km: 3.2 nM

## sCoa-RV1 (Coa 610-636) (peptide)
Human fibrinogen (human) [7]
  IC50 (read off the curve): 10 µM
[4]
  Kd: 0.139 µM
[8]
  N (binding ratio): 0.679
[9]
  N (binding ratio): 0.68
[10]
  ΔH: -39800
  ΔS: -101

## recombinant Coagulase, Coa (27-636) (from UniProt P08515 1-218)
Human fibrinogen (human) [11]
  Km: 8.9 nM

## Extracellular fibrinogen binding protein (Efb), full-length secreted form 30-165, His-tagged (from UniProt A6QG59 30-165)
Human fibrinogen (human) [12]
  Kd: 0.001 µM

## sCoa-RI3 (Coa 502-528) (peptide)
Human fibrinogen (human) [7]
  IC50 (read off the curve): 10 µM
[4]
  Kd: 0.124 µM
[9]
  N (binding ratio): 0.9

## Coa-N (Coa 27-310) (from UniProt P08515 1-218)
Human fibrinogen (human) [13]
  Km: 204 nM
